Literature values in patent US10920265B2, “Compounds and methods for detection of enzymes that remove methyl succinyl groups from epsilon-amino lysine moieties” (Enzo Life Sciences, Inc., priority 2011, dated 2021).
No end group written: not given here.

How the values were obtained:
Conditions in all cases: varied NAD^+, Du et al., 2009; cited from earlier work
SIRT3 = target: T1, SIRT3 (Homo sapiens, UniProt Q9NTG7)
T1 construct: purchased ENZO Life Sciences BML-SE270
T1 sequence (Q9NTG7 1-399): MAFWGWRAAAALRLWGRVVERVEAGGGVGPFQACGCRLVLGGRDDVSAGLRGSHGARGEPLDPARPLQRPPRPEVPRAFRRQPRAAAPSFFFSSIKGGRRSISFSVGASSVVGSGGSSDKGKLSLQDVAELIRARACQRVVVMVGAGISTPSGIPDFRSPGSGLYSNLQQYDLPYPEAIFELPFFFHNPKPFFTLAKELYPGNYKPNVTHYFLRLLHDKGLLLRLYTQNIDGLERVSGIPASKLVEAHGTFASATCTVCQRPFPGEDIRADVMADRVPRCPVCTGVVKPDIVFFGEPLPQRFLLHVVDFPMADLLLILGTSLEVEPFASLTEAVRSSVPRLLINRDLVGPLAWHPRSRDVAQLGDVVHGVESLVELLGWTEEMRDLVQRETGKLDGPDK

SIRT5 = target: T2, SIRT5 (Homo sapiens, UniProt Q9NXA8); set-up: purchased Enzo Life Sciences BML-SE555
T2 sequence (Q9NXA8 37-310): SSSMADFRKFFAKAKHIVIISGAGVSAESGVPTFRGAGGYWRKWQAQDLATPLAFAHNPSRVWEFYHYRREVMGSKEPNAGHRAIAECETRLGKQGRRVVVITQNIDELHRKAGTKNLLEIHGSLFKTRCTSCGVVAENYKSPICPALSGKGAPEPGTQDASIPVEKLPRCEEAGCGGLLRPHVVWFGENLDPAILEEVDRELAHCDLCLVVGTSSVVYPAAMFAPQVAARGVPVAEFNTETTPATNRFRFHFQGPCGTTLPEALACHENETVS

SIRT1 = target: T3, SIRT1 (Homo sapiens, UniProt Q96EB6)
T3 construct: purchased ENZO Life Sciences BML-SE239
T3 sequence (Q96EB6 1-747): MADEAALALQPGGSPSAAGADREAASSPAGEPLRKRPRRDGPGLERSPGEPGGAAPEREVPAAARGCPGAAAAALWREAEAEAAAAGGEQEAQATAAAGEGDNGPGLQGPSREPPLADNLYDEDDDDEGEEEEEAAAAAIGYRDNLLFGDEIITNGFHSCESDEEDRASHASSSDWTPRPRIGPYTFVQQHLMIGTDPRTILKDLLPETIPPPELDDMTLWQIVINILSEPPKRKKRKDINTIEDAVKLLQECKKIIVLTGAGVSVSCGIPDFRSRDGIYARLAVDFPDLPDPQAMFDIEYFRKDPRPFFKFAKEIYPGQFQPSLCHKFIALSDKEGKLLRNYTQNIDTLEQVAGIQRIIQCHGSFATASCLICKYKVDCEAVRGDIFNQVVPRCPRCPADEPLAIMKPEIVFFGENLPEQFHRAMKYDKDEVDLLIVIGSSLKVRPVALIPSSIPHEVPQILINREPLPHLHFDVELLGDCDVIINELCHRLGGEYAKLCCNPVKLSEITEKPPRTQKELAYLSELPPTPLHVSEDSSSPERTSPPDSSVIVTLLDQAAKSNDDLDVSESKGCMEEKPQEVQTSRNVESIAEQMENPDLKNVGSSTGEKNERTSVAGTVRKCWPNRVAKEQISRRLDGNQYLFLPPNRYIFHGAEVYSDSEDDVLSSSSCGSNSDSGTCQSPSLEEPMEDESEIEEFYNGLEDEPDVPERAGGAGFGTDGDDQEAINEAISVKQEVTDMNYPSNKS

SIRT2 = target: T4, SIRT2 (Homo sapiens, UniProt Q8IXJ6)
T4 sequence (Q8IXJ6 1-389): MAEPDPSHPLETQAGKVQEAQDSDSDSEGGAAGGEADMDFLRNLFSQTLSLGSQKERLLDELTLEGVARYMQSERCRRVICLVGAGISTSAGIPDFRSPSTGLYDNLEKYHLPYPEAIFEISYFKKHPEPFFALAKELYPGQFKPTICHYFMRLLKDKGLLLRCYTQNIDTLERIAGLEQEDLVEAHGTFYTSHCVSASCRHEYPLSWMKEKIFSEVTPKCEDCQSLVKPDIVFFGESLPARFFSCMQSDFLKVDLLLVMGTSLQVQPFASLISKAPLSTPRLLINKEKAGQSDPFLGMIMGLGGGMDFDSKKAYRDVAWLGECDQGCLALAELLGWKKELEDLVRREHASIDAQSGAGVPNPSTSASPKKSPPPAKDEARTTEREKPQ

## Hist. H3 4-15, K9Ac: unlabeled peptide, histone H3 residues 4-15 acetylated on lysine-9 (KQTARK(Ac)STGGKA; UniProt P68431 5-16, looked up, fragment)
SIRT3
  kcat: 0.009 s⁻¹
SIRT5
  kcat: 0.003 s⁻¹
SIRT1
  kcat: 0.079 s⁻¹
SIRT2
  kcat: 0.021 s⁻¹
